In PMC4495402 (Genes & Development, 2015):

Biological target: Xenopus histone H3/H4 tetramer (Xenopus, UniProt P84233 21-136; P62799 17-103)
Assay: ITC

Row | dH [kcal/mol] | Kd [µM] | Binder
1 | -19.2 | – | yeast ySpt2C(259–333) (domain or fragment) PGYDRDEIWAMFNRGKKRSEYDYDELEDDDMEANEMEILEEEEMARKMARLEDKREEAWLKKHEEEKRRRKKGIR
2 | -38.9 | 2.3 | ALRYMESSWKEQQKEEAKSLRLGMQEDLEEMRREEEEMQRRRAKKLKRR (domain or fragment) [hSpt2C (637–685) composed of only αC2]
3 | -9.2 | 55.6 | EPQEEISKHIREIFGYDRKKYKDESDYALRYMESS (domain or fragment) [hSpt2C (610–644) composed of only αC1]
